Changes are numbered by the printed parent chain. Where “and” joins values, the source holds several entries; their conditions need not be identical. Equal values may be shown once. Each block holds one binder with its values, some of them ahead of it.
Experiments:
human TNFR2 [1] = target: T1, human TNFR2 (human, UniProt P20333 23-461); assay: cell-based or functional assay
T1 sequence: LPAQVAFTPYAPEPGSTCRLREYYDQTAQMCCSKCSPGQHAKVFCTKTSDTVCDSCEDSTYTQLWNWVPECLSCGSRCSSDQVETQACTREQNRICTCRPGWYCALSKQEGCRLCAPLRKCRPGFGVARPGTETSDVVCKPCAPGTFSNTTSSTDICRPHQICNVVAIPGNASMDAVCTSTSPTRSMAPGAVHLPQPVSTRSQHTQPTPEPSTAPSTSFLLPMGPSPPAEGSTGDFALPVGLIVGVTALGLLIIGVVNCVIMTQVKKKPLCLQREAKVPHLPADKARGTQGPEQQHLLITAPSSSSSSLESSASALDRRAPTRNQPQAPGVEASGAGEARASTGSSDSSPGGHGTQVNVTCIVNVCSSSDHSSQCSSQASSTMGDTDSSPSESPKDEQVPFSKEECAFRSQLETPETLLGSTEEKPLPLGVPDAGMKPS

cynomolgus monkey TNFR2 [2] = target: T2, cynomolgus monkey TNFR2 (cynomolgus monkey, UniProt P20333 23-461 (human entry)); assay: cell-based or functional assay
T2 chain: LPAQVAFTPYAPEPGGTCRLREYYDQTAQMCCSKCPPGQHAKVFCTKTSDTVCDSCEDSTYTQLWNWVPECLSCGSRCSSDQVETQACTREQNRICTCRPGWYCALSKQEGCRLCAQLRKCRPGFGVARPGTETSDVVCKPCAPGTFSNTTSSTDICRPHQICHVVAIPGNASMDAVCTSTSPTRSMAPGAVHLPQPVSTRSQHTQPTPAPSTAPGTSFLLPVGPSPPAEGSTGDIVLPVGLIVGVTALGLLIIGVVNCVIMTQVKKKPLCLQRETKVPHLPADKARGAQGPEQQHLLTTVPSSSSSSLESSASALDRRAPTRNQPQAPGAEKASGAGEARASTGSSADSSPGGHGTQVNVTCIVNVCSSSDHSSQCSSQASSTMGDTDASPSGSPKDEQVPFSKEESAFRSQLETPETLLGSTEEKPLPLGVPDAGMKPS

human TNFR2 [3] = target: T1, human TNFR2; assay: binding to human TNFR2 CHO cells
human TNFR2 [4] = target: T1, human TNFR2; assay: binding to human TNFR2 CHO cells; remark: listed apart in the source
biotinylated human TNFR2 [5] = target: T3, biotinylated human TNFR2 (human, UniProt P20333 23-257, biotinylated); assay: SPR (BIAcore), biotinylated TNFR2 captured on streptavidin chip, antibody as analyte (apparent affinity)
T3 construct: Soluble biotinylated protein captured on a streptavidin chip for SPR; also called HuTNFR2
T3 sequence: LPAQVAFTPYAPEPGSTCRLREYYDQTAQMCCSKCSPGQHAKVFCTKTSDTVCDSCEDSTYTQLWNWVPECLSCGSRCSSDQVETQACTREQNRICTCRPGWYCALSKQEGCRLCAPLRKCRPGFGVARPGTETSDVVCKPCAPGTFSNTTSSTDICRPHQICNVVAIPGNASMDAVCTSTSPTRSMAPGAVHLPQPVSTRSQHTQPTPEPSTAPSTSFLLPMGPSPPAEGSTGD
Procedure: (§1) Increased avidity was confirmed by Surface Plasmon Resonance (SPR) using a BIAcore. Briefly, biotinylated human- or cyno-TNFR2 was captured on the surface of a streptavidin chip for 60 seconds at a flow rate of […]. […] The dissociation phase was then initiated with running buffer (HBS-EP+) injected for 600 seconds at […]. Data were analyzed using the Biacore Evaluation Software.

biotinylated cyno TNFR2 [6] = target: T4, biotinylated cyno TNFR2 (cynomolgus monkey, UniProt P20333 23-257 (human entry), limits assumed, biotinylated); assay: as above
T4 construct: Soluble biotinylated protein captured on a streptavidin chip for SPR; also called CyTNFR2
T4 chain: T3 sequence with S16G, S36P, P117Q, N164H, E210A, S216G, M223V
Procedure: as §1

human TNFR2 [7] = target: T1, human TNFR2; assay: cell-based or functional assay; remark: listed apart in the source
human TNFR2 [8] = target: T1, human TNFR2; assay: binding to human TNFR2 CHO cells (repeats Table 1)
human TNFR2 [9] = target: T1, human TNFR2; assay: cell-based or functional assay; remark: listed apart in the source
cynomolgus monkey TNFR2 [10] = target: T2, cynomolgus monkey TNFR2; assay: cell-based or functional assay
cynomolgus monkey TNFR2 [11] = target: T2, cynomolgus monkey TNFR2; assay: binding to CHO cells over-expressing cyno TNFR2
human TNFR2 [12] = target: T1, human TNFR2; assay: binding to CHO cells over-expressing human TNFR2
cynomolgus monkey TNFR2 [13] = target: T2, cynomolgus monkey TNFR2; assay: binding to cyno TNFR2 CHO cells (repeats Table 1)
human TNFR2 [14] = target: T1, human TNFR2; assay: cell-based or functional assay; remark: listed apart in the source
biotinylated human TNFR2 [15] = target: T3, biotinylated human TNFR2; assay: SPR (BIAcore), biotinylated TNFR2 captured on streptavidin chip, TetraFab as analyte (apparent affinity)
Procedure: as §1

biotinylated cyno TNFR2 [16] = target: T4, biotinylated cyno TNFR2; assay: as above
Procedure: as §1

biotinylated human TNFR2 [17] = target: T3, biotinylated human TNFR2; assay: SPR (BIAcore), apparent affinity
Procedure: as §1

human TNFR2 [18] = target: T1, human TNFR2; assay: cell-based or functional assay; remark: listed apart in the source
cynomolgus monkey TNFR2 [19] = target: T2, cynomolgus monkey TNFR2; assay: cell-based or functional assay
human TNFR2 [20] = target: T1, human TNFR2; assay: cell-based or functional assay; remark: listed apart in the source
cynomolgus monkey TNFR2 [21] = target: T2, cynomolgus monkey TNFR2; assay: cell-based or functional assay
human TNFR2 [22] = target: T1, human TNFR2; assay: cell-based or functional assay; remark: listed apart in the source
cynomolgus monkey TNFR2 [23] = target: T2, cynomolgus monkey TNFR2; assay: cell-based or functional assay

EC50 HuPBMC (ICAM-1 up-regulation) (human TNFR2 [1]): 1.4 µg/mL | EC50 CyPBMC (CD25+/Ki67+ of CD4+ cells) (cynomolgus monkey TNFR2 [2]): 27.2 µg/mL | EC50 (human TNFR2 [3]): 1.13 nM | EC50 (human TNFR2 [4]): 1.13 nM | Kd (biotinylated human TNFR2 [5]): 0.11 nM | koff (biotinylated human TNFR2 [5]): 0.00125 s⁻¹ | kon (biotinylated human TNFR2 [5]): 1.13e+07 M⁻¹ s⁻¹ | Kd (biotinylated cyno TNFR2 [6]): 0.89 nM | koff (biotinylated cyno TNFR2 [6]): 0.00996 s⁻¹ | kon (biotinylated cyno TNFR2 [6]): 1.12e+07 M⁻¹ s⁻¹ | Jurkat (ng/ml), EC50 in NF-KB-GFP reporter assay (human TNFR2 [7]): 711 ng/mL | EC50 (human TNFR2 [8]): 0.106 µg/mL | EC50 (HuPBMC) (human TNFR2 [9]): 1.4 nM | Jurkat EC50 (human TNFR2 [9]): 1.74 µg/mL | EC50 (CyPBMC) (cynomolgus monkey TNFR2 [10]): 15 nM | EC50 (cynomolgus monkey TNFR2 [11]): 0.13 µg/mL | EC50 (human TNFR2 [12]): 0.106 µg/mL | EC50 (cynomolgus monkey TNFR2 [13]): 0.13 µg/mL | EC50 Jurkat (human TNFR2 [14]): 0.526 µg/mL
B1: GBT-TNFR2-854 (parental) (antibody, human IgG2, kappa, V domains shown)
VH: QVQLKESGPGLVAPSQSLSITCTVSGFSFPSSGVDWVRQSPGKGLEWLGVTWGVGSTHYNSALKSRLSISKDNSKSQVFLKMNSLQTEDTAIYYCASGEWDEGFVYWGQGTLVTVSA
VL: DIVMTQSQKFMSTTVGDRVSITCKASQNVGTAVAWYQQKPGQSPKLLIYSASNRYTGVPDRFTGSGSGTDFTLTISNMQSEDLADYFCQQYSSYPLTFGGGTKLEIKR
notes: Chimeric mouse V / human IgG2 effector-null, kappa; same hybridoma clone as IgG1 825

EC50 HuPBMC (ICAM-1 up-regulation) (human TNFR2 [1]): 0.116 µg/mL | EC50 CyPBMC (CD25+/Ki67+ of CD4+ cells) (cynomolgus monkey TNFR2 [2]): 5.95 µg/mL | Kd (biotinylated human TNFR2 [15]): 0.06 nM | koff (biotinylated human TNFR2 [15]): 0.000473 s⁻¹ | kon (biotinylated human TNFR2 [15]): 8.1e+06 M⁻¹ s⁻¹ | Kd (biotinylated cyno TNFR2 [16]): 0.61 nM | koff (biotinylated cyno TNFR2 [16]): 0.00706 s⁻¹ | kon (biotinylated cyno TNFR2 [16]): 1.15e+07 M⁻¹ s⁻¹ | fold improvement of KD compared to its IgG counterparts 854 or 1765 (biotinylated human TNFR2 [17]): 5 fold | fold improvement of EC50 for up-regulation of ICAM-1 against 854 and 1765 (human TNFR2 [18]): 10 fold | fold improvement of Jurkat EC50 compared to both 854 and 1765 (human TNFR2 [18]): > 10 fold | mean EC50 for IKBa in human expanded Tregs (human TNFR2 [18]): 0.026 nM | mean EC50 for OX-40 upregulation on human splenic Treg (human TNFR2 [18]): 0.033 nM | loss of potency in cyno versus human, IKBa degradation (cynomolgus monkey TNFR2 [19]): > 5 fold | mean EC50 for IKBa in cyno expanded Tregs (cynomolgus monkey TNFR2 [19]): 0.145 nM | mean EC50 for upregulation of OX-40 in cyno splenic Treg (cynomolgus monkey TNFR2 [19]): 0.958 nM | Human EC50, IKBa degradation in expanded Tregs, donor Human D23 (human TNFR2 [20]): 0.0478 nM | Human EC50, IKBa degradation in expanded Tregs, donor Human D24 (human TNFR2 [20]): 0.00575 nM | Human EC50, IKBa degradation in expanded Tregs, donor Human D28 (human TNFR2 [20]): 0.02 nM and 0.0179 nM | Human EC50, IKBa degradation in expanded Tregs, donor Human D32 (human TNFR2 [20]): 0.0373 nM | Cyno EC50, IKBa degradation in expanded Tregs, donor Cyno3 (cynomolgus monkey TNFR2 [21]): 2.25 nM | Cyno EC50, IKBa degradation in expanded Tregs, donor Cyno 16-477 (cynomolgus monkey TNFR2 [21]): 0.118 nM | Cyno EC50, IKBa degradation in expanded Tregs, donor Cyno 16-873 (cynomolgus monkey TNFR2 [21]): 0.0538 nM | Cyno EC50, IKBa degradation in expanded Tregs, donor Cyno 18-7469 (cynomolgus monkey TNFR2 [21]): 0.4 nM | Cyno EC50, IKBa degradation in expanded Tregs, donor Cyno 18-7473 (cynomolgus monkey TNFR2 [21]): 0.155 nM | Human EC50, OX-40 up-regulation on splenic Treg, donor BioIVT #BRH1515663 (human TNFR2 [22]): 0.018 nM | Human EC50, OX-40 up-regulation on splenic Treg, donor ZenBio #072518 (human TNFR2 [22]): 0.047 nM | Cyno EC50, OX-40 up-regulation on splenic Treg, donor 17-5215 (cynomolgus monkey TNFR2 [23]): 1.75 nM | Cyno EC50, OX-40 up-regulation on splenic Treg, donor #31 (cynomolgus monkey TNFR2 [23]): 0.799 nM | Cyno EC50, OX-40 up-regulation on splenic Treg, donor #34 (cynomolgus monkey TNFR2 [23]): 0.905 nM | Cyno EC50, OX-40 up-regulation on splenic Treg, donor TA1 (cynomolgus monkey TNFR2 [23]): 0.642 nM | Cyno EC50, OX-40 up-regulation on splenic Treg, donor TA2 (cynomolgus monkey TNFR2 [23]): 0.692 nM | EC50 Jurkat (human TNFR2 [14]): 0.037 µg/mL
B2: TetraFab 2053 (antibody, human IgG1, kappa)
heavy: QVQLVQSGAEVKKPGASVKVSCKVSGFSFPSSGVDWVRQAPGQGLEWLGVTWGVGSTHYNQKFQGRVTITKDTSKSTVYMELSSLRSEDTAVYYCASGEWDEGFVYWGQGTLVTVSSASTKGPSVFPLAPSSKSTSGGTAALGCLVKDYFPEPVTVSWNSGALTSGVHTFPAVLQSSGLYSLSSVVTVPSSSLGTQTYICNVNHKPSNTKVDKKVEPKSCGGGGSQVQLVQSGAEVKKPGASVKVSCKVSGFSFPSSGVDWVRQAPGQGLEWLGVTWGVGSTHYNQKFQGRVTITKDTSKSTVYMELSSLRSEDTAVYYCASGEWDEGFVYWGQGTLVTVSSASTKGPSVFPLAPSSKSTSGGTAALGCLVKDYFPEPVTVSWNSGALTSGVHTFPAVLQSSGLYSLSSVVTVPSSSLGTQTYICNVNHKPSNTKVDKKVEPKSCDKTHTCPPCPAPEAAGAPSVFLFPPKPKDTLMISRTPEVTCVVVDVSHEDPEVKFNWYVDGVEVHNAKTKPREEQYNSTYRVVSVLTVLHQDWLNGKEYKCKVSNKALPAPIEKTISKAKGQPREPQVYTLPPSREEMTKNQVSLTCLVKGFYPSDIAVEWESNGQPENNYKTTPPVLDSDGSFFLYSKLTVDKSRWQQGNVFSCSVMHEALHNHYTQKSLSLSPGK
light: DIQLTQSPSFLSASVGDRVTITCKASQNVGTAVAWYQQKPGKAPKLLIYAASTLQSGVPSRFSGSGSGTEFTLTISSLQPEDFATYYCQQYSSYPLTFGGGTKVEIKRTVAAPSVFIFPPSDEQLKSGVTASVVCLLNNFYPREAKVQWKVDNALQSGNSQESVTEQDSKDSTYSLSSTLTLSKADYEKHKVYACEVTHQGLSSPVTKSFNRGEC
notes: also called TF2053
